“Also recorded” adds a separate entry of the source.
Assays:
[1] = target: T1, biotinylated mesothelin ECD (Homo sapiens, UniProt Q13421); assay: Surface plasmon resonance (Biacore T200) binding affinity of purified scFvs; conditions: for ka / kd: 1:1 Binding fit; for Kd: 1:1 Binding or Steady State Affinity fit
T1 construct: made in house; host or cells: HEK293F (transient)
Description: Binding affinity of purified scFvs was measured on a Biacore T200 system. Briefly, recombinant human biotinylated mesothelin ECD was immobilized on a streptavidin (SA) sensor chip surface at a density of 150 RU. Purified scFv was injected over the chip under constant flow rate at three-fold serial dilutions. Association and dissociation rates of the protein complex were monitored for 270 seconds and 400 seconds, respectively. Double referencing was performed against a blank immobilized flow cell and a buffer blank. Affinity was determined with a Langmuir 1:1 binding model when possible, for those scFVs where accurate fitting was not possible due to fast on and off rates, the steady state model was used.

[2] = target: T1, biotinylated mesothelin ECD; assay: SPR relative epitope binning in comparison to SS1; assay type: binding; conditions: 50 nM SS1 captured first, then scFv at 100 nM
Description: In embodiments, the competition assay is an SPR-based assay. Briefly, the antigen, e.g., human mesothelin, is immobilized on a surface. Through a microflow system, a reference antibody is injected over the antigen layer. Upon binding of the reference antibody to the antigen, an increase in signal, typically expressed in response units (RU) is detected, e.g., reference signal. After a desired time, a test antibody is injected over the antigen layer. If the test antibody binds to a different region or epitope of the antigen, then an additional increase in signal is detected, e.g., a 5% or more, 10% or more, 15% or more, 20% or more, 25% or more, 30% or more, 35%, or more, 40% or more, 45% or more, 50% or more, 55% of more, 60% or more, 65% or more, 70% or more, 75% or more, 80% or more, 85% or more, 90% or more, or 95% or more increase in signal, e.g., RU, as compared to the highest signal detected upon binding of the reference antibody, e.g., the reference signal. If the test antibody binds to the same region or epitope of the antigen, then little or no increase in signal, e.g., RU, will be detected, e.g., less than 20%, less than 15%, less than 10%, less than 5%, less than 4%, less than 3%, less than 2%, or less than 1% increase in signal, e.g., RU, as compared to the highest signal detected upon binding of the reference antibody, e.g., the reference signal. When using this SPR-based competition assay, an antibody is said to compete with the reference antibody when less than 20%, less than 15%, less than 10%, less than 5%, less than 4%, less than 3%, less than 2%, or less than 1% increase in signal, e.g., RU, is detected when compared to the reference signal detected upon binding of the reference antibody to the antigen. An antibody is said to not compete, or compete poorly, with a reference antibody when a 5% or more, 10% or more, 15% or more, 20% or more, 25% or more, 30% or more, 35%, or more, 40% or more, 45% or more, 50% or more, 55% of more, 60% or more, 65% or more, 70% or more, 75% or more, 80% or more, 85% or more, 90% or more, or 95% or more increase in signal, e.g., RU, is detected when compared to the reference signal detected upon binding of the reference antibody to the antigen.
To determine the relative binding epitope of each of the scFvs in comparison to SS1, 50 nM SS1 was captured by biotinylated mesothelin ECD immobilized on a streptavidin sensor chip at a contact time of 180 seconds resulting in a relative density of 70 RU. Purified scFv at 100 nM (M5, M11, M12, M14, M16, M17, M21, or M23) was then immediately injected over the chip to minimize dissociation of the SS1/mesothelin complex. Binding of the secondary scFv was monitored for 270 seconds.

[3] = Size exclusion chromatography (oligomerization state of expressed scFvs); assay type: physicochemical; conditions: purified scFv
Description: Size exclusion chromatography was performed to determine the oligomerization states of the expressed scFvs. 25 μg each was injected onto a TSKGel Super SW3000 4.6 mm×300 mm column (Tosoh Bioscience) heated to 35° C. The scFvs were eluted at 0.3 mL/min in 750 mM arginine, 1 mM EDTA, 20 mM sodium phosphate, 250 mM sodium chloride, pH 7.2; the UV absorbance was monitored at 280 nm.

Ovcar3 = assay: Luciferase-based killing assay; assay type: cell-based, human
Description: The ability for the CART-MSLN to target and kill tumor cells was also assessed in vitro. A luciferase-based assay was used, with tumor cell lines expressing luciferase reporters. Target cells (tumor cells) were plated at 20,000 targets/well. CART-MSLN were added at varying effector:target ratios, from 10:1, 5:1, 2.5:1, and 1:1. The cells were cultured for 20 hours, and the luminescence of each well was detected to determine the percentage of target cells killed. Luciferase-expressing Ovcar3 (ovarian cancer) and U87 mg (glioblastoma) cell lines were used as target cells.

Ovcar8 = Ovcar8 xenograft model (Example 8); assay type: in vivo, NSG mice; conditions: OVCAR8-mcherry; 10×10^6 T cells, about 4×10^6 CART cells
Description: Anti-tumor activity of CART-MSLN was assessed in vivo in an Ovcar8 xenograft model. 10×10^6 Ovcar8 cells were implanted subcutaneously on day 0 in NSG mice. At day 14, 2×10^6 CART cells (CARTs expressing M5, M11, M17, M21, SS1, and CD19, or untransduced cells; 10×10^6 total T cells) in a 100 μl dose was administered intravenously. Mice and tumors were monitored for about 40 days after tumor cell implantation.
A second in vivo xenograft experiment was performed to assess the anti-tumor activity of a second set of CART-MSLN cells. 10×10^6 OVCAR8-mcherry cells were injected into NSG mice. Once tumors were 150-250 mm^2, mice were randomized into treatment groups. CARTs expressing M12, M14, M16, M23, ss1, CD19, or untreated cells were injected at a dose of 10×10^6 T cells in 100 μl. About 40% of T cells were expressing CAR, and therefore at the administered dosage, about 4×10^6 CART cells were delivered to each animal.

T1 sequence (Q13421 with tags, fused parts or gaps): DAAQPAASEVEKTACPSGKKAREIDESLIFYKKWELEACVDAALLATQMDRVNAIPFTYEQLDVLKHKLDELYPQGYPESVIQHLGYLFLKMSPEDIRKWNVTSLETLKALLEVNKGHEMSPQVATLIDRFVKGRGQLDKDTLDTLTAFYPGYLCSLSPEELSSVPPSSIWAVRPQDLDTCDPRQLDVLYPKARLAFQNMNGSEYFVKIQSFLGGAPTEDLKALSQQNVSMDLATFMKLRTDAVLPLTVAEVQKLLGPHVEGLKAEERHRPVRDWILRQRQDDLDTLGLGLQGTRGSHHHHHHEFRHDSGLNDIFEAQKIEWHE

Row | ka [1] [M⁻¹ s⁻¹] | kd [1] [s⁻¹] | Kd [1] [nM] | Molecule | relative epitope binning against SS1 on human mesothelin [2] | % Monomer (SEC) [3] [%] | killing of target tumor cells (Ovcar3; E:T 10:1 to 1:1, 20 hours, FIG. 16A) | specific killing within the panel of human meso CARs (Ovcar3; FIGS. 17A and 17B) | effect on tumor growth, second xenograft experiment (Ovcar8)
1 | 522000 | 0.0145 | 27.8 | M17: human anti-mesothelin scFv SEQ ID NO: 55; full CAR SEQ ID NO: 79 (protein) scFv: EVQLVESGGGLVQPGRSLRLSCAASGFTFDDYAMHWVRQAPGKGLEWVSGISWNSGSTGYADSVKGRFTISRDNAKNSLYLQMNSLRAEDTALYYCAKDSSSWYGGGSAFDIWGQGTMVTVSSGGGGSGGGGSGGGGSSSELTQDPAVSVALGQTVRITCQGDSLRSYYASWYQQKPGQAPVLVIYGKNNRPSGIPDRFSGSSSGNTASLTITGAQAEDEADYYCNSRGSSGNHYVFGTGTKVTVL | Competitive binding; also recorded: competitive binders with SS1 | >98 | performed similarly well in killing target tumor cells | highest specific killing of Ovcar3 cells | 
2 |  |  | 307 | M12: human anti-mesothelin scFv SEQ ID NO: 50; full CAR SEQ ID NO: 74 (protein) scFv: QVQLVQSGAEVKKPGASVKVSCKASGYTFTGYYMHWVRQAPGQGLEWMGRINPNSGGTNYAQKFQGRVTMTTDTSTSTAYMELRSLRSDDTAVYYCARTTTSYAFDIWGQGTMVTVSSGGGGSGGGGSGGGGSGGGGSDIQLTQSPSTLSASVGDRVTITCRASQSISTWLAWYQQKPGKAPNLLIYKASTLESGVPSRFSGSGSGTEFTLTISSLQPDDFATYYCQQYNTYSPYTFGQGTKLEIK | Competitive binding; also recorded: competitive binders with SS1 | 70 |  |  | did not have an effect on tumor growth
3 |  |  | 110 | M21: human anti-mesothelin scFv SEQ ID NO: 59; CDRs in Tables 4 and 5 (protein) scFv: QVQLVQSWAEVKKPGASVKVSCKASGYTFTSYYMHWVRQAPGQGLEWMGIINPSGGSTSYAQKFQGRVTMTRDTSTSTVYMELSNLRSEDTAVYYCARSPRVTTGYFDYWGQGTLVTVSSGGGGSGGGGSGGGGSGGGGSDIQLTQSPSTLSASVGDRVTITCRASQSISSWLAWYQQKPGKAPKLLIYKASSLESGVPSRFSGSGSGTEFTLTISSLQPDDFATYYCQQYSSYPLTFGGGTRLEIK | Competitive binding; also recorded: competitive binders with SS1 | >98 |  |  | 
4 |  |  | 114 | M23: human anti-mesothelin scFv SEQ ID NO: 61; CDRs in Tables 4 and 5 (protein) scFv: QVQLQQSGAEVKKPGASVKVSCKASGYTFTNYYMHWVRQAPGQGLEWMGIINPSGGYTTYAQKFQGRLTMTRDTSTSTVYMELSSLRSEDTAVYYCARIRSCGGDCYYFDNWGQGTLVTVSSGGGGSGGGGSGGGGSGGGGSDIQLTQSPSTLSASVGDRVTITCRASENVNIWLAWYQQKPGKAPKLLIYKSSSLASGVPSRFSGSGSGAEFTLTISSLQPDDFATYYCQQYQSYPLTFGGGTKVDIK | Competitive binding; also recorded: competitive binders with SS1 | 91 |  |  | did not have an effect on tumor growth
5 | 174000 | 0.00395 | 22.7 | M16: human anti-mesothelin scFv SEQ ID NO: 54; full CAR SEQ ID NO: 78 (protein) scFv: EVQLVESGGGLVQPGRSLRLSCAASGFTFDDYAMHWVRQAPGKGLEWVSGISWNSGSTGYADSVKGRFTISRDNAKNSLYLQMNSLRAEDTALYYCAKDSSSWYGGGSAFDIWGQGTMVTVSSGGGGSGGGGSGGGGSSSELTQEPAVSVALGQTVRITCQGDSLRSYYASWYQQKPGQAPVLVIFGRSRRPSGIPDRFSGSSSGNTASLIITGAQAEDEADYYCNSRDNTANHYVFGTGTKLTVL | Competitive binding; also recorded: competitive binders with SS1 | 94.5 |  |  | did not have an effect on tumor growth
6 | 2.75e+06 | 0.00251 | 0.9 | M14: human anti-mesothelin scFv SEQ ID NO: 52; full CAR SEQ ID NO: 76 (protein) scFv: QVQLVQSGAEVRAPGASVKISCKASGFTFRGYYIHWVRQAPGQGLEWMGIINPSGGSRAYAQKFQGRVTMTRDTSTSTVYMELSSLRSDDTAMYYCARTASCGGDCYYLDYWGQGTLVTVSSGGGGSGGGGSGGGGSGGGGSDIQMTQSPPTLSASVGDRVTITCRASENVNIWLAWYQQKPGKAPKLLIYKSSSLASGVPSRFSGSGSGAEFTLTISSLQPDDFATYYCQQYQSYPLTFGGGTKVDIK | Competitive binding; also recorded: competitive binders with SS1 | 74.5 |  |  | did not have an effect on tumor growth
